Reference: patent US20250154284A1 (INMAGENE PTE, published 2025)

The binders below were run against T1, recombinant human MASP-2 protein (human, UniProt O00187 16-686) (assay: BLI (Gator), antibody on Protein A biosensor, recombinant MASP-2 25-200 nM, 30 C).
T1 construct: Used as analyte in BLI and SPR; also called hMASP-2; hMASP2-FL
Protocol: Recombinant MASP-2 protein was diluted with kinetics buffer to get a concentration gradient: 200 nM, 100 nM, 50 nM, 25 nM, and 0 nM (reference control). Antibodies were immobilized onto Protein A biosensor after balance. A baseline was detected for 60 seconds. Then, antibody-antigen association was detected for 120 seconds to obtain data for Kₒₙ, followed by detection of dissociation in kinetic buffer for 120 seconds to obtain data for Koff. The regeneration of biosensors was done in buffer 10 mM glycine, pH2.0. All the kinetics data were collected at 30° C. Data were acquired with Gator Bioanalysis System.

T1 sequence (O00187 16-686): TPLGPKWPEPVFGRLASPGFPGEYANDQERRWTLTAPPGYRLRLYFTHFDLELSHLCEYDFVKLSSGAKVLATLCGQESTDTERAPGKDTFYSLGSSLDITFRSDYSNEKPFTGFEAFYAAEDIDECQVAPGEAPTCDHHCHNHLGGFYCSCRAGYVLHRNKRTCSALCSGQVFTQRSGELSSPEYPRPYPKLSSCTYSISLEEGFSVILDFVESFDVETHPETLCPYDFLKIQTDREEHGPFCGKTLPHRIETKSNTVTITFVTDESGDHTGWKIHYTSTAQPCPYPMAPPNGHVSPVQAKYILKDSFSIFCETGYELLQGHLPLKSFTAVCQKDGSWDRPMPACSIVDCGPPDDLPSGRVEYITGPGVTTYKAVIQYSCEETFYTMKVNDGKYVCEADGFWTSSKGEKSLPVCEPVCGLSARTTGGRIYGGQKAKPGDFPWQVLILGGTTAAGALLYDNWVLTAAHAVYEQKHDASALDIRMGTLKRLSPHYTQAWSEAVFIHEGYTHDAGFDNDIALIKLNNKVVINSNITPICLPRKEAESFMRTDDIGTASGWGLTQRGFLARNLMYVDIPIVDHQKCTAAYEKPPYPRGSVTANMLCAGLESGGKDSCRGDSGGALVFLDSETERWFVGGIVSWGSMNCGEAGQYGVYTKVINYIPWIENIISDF

Kd | koff | kon | Binder
< 0.1 nM | < 1e-06 s⁻¹ | 29600 M⁻¹ s⁻¹ | anti-MASP-2 antibody clone 3E10 (chimeric 3E10) (antibody, V domains shown, Mouse variable regions; tested as a 'chimeric' antibody; also called 3E10-mus) VH: EVQLQQSGPGLVQSSQSLSITCTVSGFSLTTYGVHWVRLSPGKGLEWLGVIWKGGSTDYNAAFMSRLSITKDNSKSEVFFQMNSLQGDDSAIYYCVKTLELRRRDYYAMDYWGQGTSVTVSS VL: DIVMTQTTSSLAVSAGEKVTMSCKSSQNILYSSNQKNLLAWYQQKPGQSPKLLIYWASTRESGVPNRFTGSGSGTDFSLTINSVQPEDLAVYYCHQYFSSYTFGGGTKLEMK

The binders below were run against T1, recombinant human MASP-2 protein (assay: BLI (Gator), antibody on Protein A biosensor, human MASP-2, 30 C).
Protocol: The assay was performed at 30° C. and the kinetics buffer was 1×PBS (136 mM NaCl, 8 mM […], 2 mM KH₂PO₄, 2.6 mM KCl) with 0.1% BSA and 0.005% Tween-20, pH7.4. Diluted antibodies and human MASP-2 were added to the corresponding well. After loading human MASP-2, biosensor detected the association and dissociation of antibodies. The regeneration of biosensors was in buffer 10 mM glycine, pH2.0.

Binder | Kd | koff | kon
anti-MASP-2 antibody clone 3E10 (chimeric 3E10) (antibody, V domains shown, Mouse variable regions; tested as a 'chimeric' antibody; also called 3E10-mus) VH: EVQLQQSGPGLVQSSQSLSITCTVSGFSLTTYGVHWVRLSPGKGLEWLGVIWKGGSTDYNAAFMSRLSITKDNSKSEVFFQMNSLQGDDSAIYYCVKTLELRRRDYYAMDYWGQGTSVTVSS VL: DIVMTQTTSSLAVSAGEKVTMSCKSSQNILYSSNQKNLLAWYQQKPGQSPKLLIYWASTRESGVPNRFTGSGSGTDFSLTINSVQPEDLAVYYCHQYFSSYTFGGGTKLEMK | 15.4 nM | 0.00113 s⁻¹ | 73500 M⁻¹ s⁻¹
3E10-hu-9 (antibody, V domains shown, also called humanized 3E10 clone with 3E10-hu-VH-9) VH: QVQLVESGGGVVQPGRSLRLSCAASGFSLTTYGVHWVRQAPGKGLEWLGVIWKGGSTDYNAAFMSRLTISKDNSKSTVYIQMNSLRAEDTAVYYCAKTLELRRRDYYAMDYWGQGTLVTVSS VL: DIVMTQSPDSLAVSLGERATINCKSSQNILYSSNQKNLLAWYQQKPGQPPKLLIYWASTRESGVPDRFSGSGSGTDFTLTISSLQAEDVAVYYCHQYFSSYTFGQGTKLEIK | 12.8 nM | 0.000952 s⁻¹ | 74200 M⁻¹ s⁻¹
3E10-hu-10 (antibody, V domains shown, also called humanized 3E10 clone with 3E10-hu-VH-10) VH: QVQLVESGGGVVQPGRSLRLSCAASGFSLTTYGVHWVRQAPGKGLEWLGVIWKGGSTDYNAAFMSRLTISKDNSKSTVYIQMNSLRAEDTAVYYCVKTLELRRRDYYAMDYWGQGTLVTVSS VL: DIVMTQSPDSLAVSLGERATINCKSSQNILYSSNQKNLLAWYQQKPGQPPKLLIYWASTRESGVPDRFSGSGSGTDFTLTISSLQAEDVAVYYCHQYFSSYTFGQGTKLEIK | 15.3 nM | 0.00111 s⁻¹ | 72800 M⁻¹ s⁻¹
3E10-hu-0 (antibody, V domains shown, also called humanized 3E10 clone with 3E10-hu-VH-0) VH: QVQLVESGGGVVQPGRSLRLSCAASGFTFSTYGVHWVRQAPGKGLEWVAVIWKGGSTDYNAAFMSRFTISRDNSKNTIYIQMNSLRAEDTAVYYCAKTLELRRRDYYAMDYWGQGTLVTVSS VL: DIVMTQSPDSLAVSLGERATINCKSSQNILYSSNQKNLLAWYQQKPGQPPKLLIYWASTRESGVPDRFSGSGSGTDFTLTISSLQAEDVAVYYCHQYFSSYTFGQGTKLEIK | 26.3 nM | 0.00102 s⁻¹ | 38700 M⁻¹ s⁻¹
3E10-hu-7-1 (antibody, V domains shown, also called humanized 3E10 clone with 3E10-hu-VH-7-1) VH: QVQLVESGGGVVQPGRSLRLSCAASGFTLSTYGVHWVRQAPGKGLEWLGVIWKGGSTDYNAAFMSRLTISKDNSKSTVYIQMNSLRAEDTAVYYCAKTLELRRRDYYAMDYWGQGTLVTVSS VL: DIVMTQSPDSLAVSLGERATINCKSSQNILYSSNQKNLLAWYQQKPGQPPKLLIYWASTRESGVPDRFSGSGSGTDFTLTISSLQAEDVAVYYCHQYFSSYTFGQGTKLEIK | 17.3 nM | 0.00114 s⁻¹ | 65700 M⁻¹ s⁻¹
3E10-hu-8 (antibody, V domains shown, also called humanized 3E10 clone with 3E10-hu-VH-8) VH: QVQLVESGGGVVQPGRSLRLSCAASGFSLTTYGVHWVRQAPGKGLEWLGVIWKGGSTDYNAAFMSRLTISKDNSKNTVYIQMNSLRAEDTAVYYCAKTLELRRRDYYAMDYWGQGTLVTVSS VL: DIVMTQSPDSLAVSLGERATINCKSSQNILYSSNQKNLLAWYQQKPGQPPKLLIYWASTRESGVPDRFSGSGSGTDFTLTISSLQAEDVAVYYCHQYFSSYTFGQGTKLEIK | 15.6 nM | 0.00107 s⁻¹ | 68600 M⁻¹ s⁻¹

More lines, now with the values ahead:

Kd | koff | kon | Binder
14.7 nM | 0.00107 s⁻¹ | 72900 M⁻¹ s⁻¹ | 3E10-hu-7-2 (antibody, V domains shown, also called humanized 3E10 clone with 3E10-hu-VH-7-2) VH: QVQLVESGGGVVQPGRSLRLSCAASGFTLSTYGVHWVRQAPGKGLEWLGVIWKGGSTDYNAAFMSRLTISKDNSKNTVYIQMNSLRAEDTAVYYCVKTLELRRRDYYAMDYWGQGTLVTVSS VL: DIVMTQSPDSLAVSLGERATINCKSSQNILYSSNQKNLLAWYQQKPGQPPKLLIYWASTRESGVPDRFSGSGSGTDFTLTISSLQAEDVAVYYCHQYFSSYTFGQGTKLEIK
15.2 nM | 0.000985 s⁻¹ | 64600 M⁻¹ s⁻¹ | 3E10-hu-6 (antibody, V domains shown, also called humanized 3E10 clone with 3E10-hu-VH-6) VH: QVQLVESGGGVVQPGRSLRLSCAASGFTLSTYGVHWVRQAPGKGLEWLGVIWKGGSTDYNAAFMSRLTISKDNSKNTVYIQMNSLRAEDTAVYYCAKTLELRRRDYYAMDYWGQGTLVTVSS VL: DIVMTQSPDSLAVSLGERATINCKSSQNILYSSNQKNLLAWYQQKPGQPPKLLIYWASTRESGVPDRFSGSGSGTDFTLTISSLQAEDVAVYYCHQYFSSYTFGQGTKLEIK
14.3 nM | 0.00103 s⁻¹ | 72300 M⁻¹ s⁻¹ | 3E10-hu-12 (antibody, V domains shown, also called humanized 3E10 clone with 3E10-hu-VH-12) VH: QVQLVESGGGVVQPGRSLRISCAVSGFSLTTYGVHWVRQAPGKGLEWLGVIWKGGSTDYNAAFMSRLTISKDNSKSTVYIQMNSLRAEDTAVYYCVKTLELRRRDYYAMDYWGQGTLVTVSS VL: DIVMTQSPDSLAVSLGERATINCKSSQNILYSSNQKNLLAWYQQKPGQPPKLLIYWASTRESGVPDRFSGSGSGTDFTLTISSLQAEDVAVYYCHQYFSSYTFGQGTKLEIK
13.7 nM | 0.00107 s⁻¹ | 77700 M⁻¹ s⁻¹ | 3E10-hu-11 (antibody, V domains shown, also called humanized 3E10 clone with 3E10-hu-VH-11) VH: QVQLVESGGGVVQPGRSLRISCAASGFSLTTYGVHWVRQAPGKGLEWLGVIWKGGSTDYNAAFMSRLTISKDNSKSTVYIQMNSLRAEDTAVYYCVKTLELRRRDYYAMDYWGQGTLVTVSS VL: DIVMTQSPDSLAVSLGERATINCKSSQNILYSSNQKNLLAWYQQKPGQPPKLLIYWASTRESGVPDRFSGSGSGTDFTLTISSLQAEDVAVYYCHQYFSSYTFGQGTKLEIK

These binders were tested against T1, recombinant human MASP-2 protein (assay: cell-based or functional assay).

IC50 of C3 activation (mannan-coated plate, human serum) | IC50 of C4 activation (mannan-coated plate, human serum) | IC50 of C4 activation in 5% human serum | IC50 of C4 activation in 10% human serum (methods say 25%) | IC50 of C4 activation in 50% human serum | IC50 of MAC activation (mannan-coated plate, human serum) | Binder
4.14 ng/mL | 3.6 ng/mL | 8.26 ng/mL | 30.8 ng/mL | 67.3 ng/mL | 3.27 ng/mL | anti-MASP-2 antibody clone 3E10 (chimeric 3E10) (antibody, V domains shown, Mouse variable regions; tested as a 'chimeric' antibody; also called 3E10-mus) VH: EVQLQQSGPGLVQSSQSLSITCTVSGFSLTTYGVHWVRLSPGKGLEWLGVIWKGGSTDYNAAFMSRLSITKDNSKSEVFFQMNSLQGDDSAIYYCVKTLELRRRDYYAMDYWGQGTSVTVSS VL: DIVMTQTTSSLAVSAGEKVTMSCKSSQNILYSSNQKNLLAWYQQKPGQSPKLLIYWASTRESGVPNRFTGSGSGTDFSLTINSVQPEDLAVYYCHQYFSSYTFGGGTKLEMK
